From the supplement of paper PMC9170038

System: MS2 coat protein
Experiment: apparent KD of MS2 coat protein; designed switch direction (-1 OFF switch, 1 ON switch): 1; higher = weaker reporter binding
Outline: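 RNA switches sharing common flanks were transcribed by stalled E. coli RNA polymerase on Illumina chips. A doubling series of SNAP-549-labelled MS2 coat protein, from 0.7 or 1.5 nM to 3 µM, was applied in Tris-HCl pH 7.5 buffer with KCl, MgCl2, BSA, DTT, tRNA and Tween-20. Each step lasted 0.8–1.5 h at the bottom of the series and 10–20 min at the top. Normalised cluster fluorescence was curve-fitted, giving apparent KD as the per-design median over clusters.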

[1] = input ligand: microRNA oligo, concentration not stated
[2] = Eterna round: R95, input ligand: FMN 200 uM
[3] = Eterna round: R95, input ligand: microRNA oligo, concentration not stated
[4] = Eterna round: R95, input ligand: none

| Sequence | apparent KD of MS2 coat protein (input ligand: FMN 200 uM) | apparent KD of MS2 coat protein [1] | apparent KD of MS2 coat protein (input ligand: none) | apparent KD of MS2 coat protein [2] | apparent KD of MS2 coat protein [3] | apparent KD of MS2 coat protein [4] |
| --- | --- | --- | --- | --- | --- | --- |
| GUUACAUGAGGAUCACCCAUGUAUGUGUGGGAGUAAGUGUCUUAGGAUAUCUAUCAUUUAAUUGAAGAGAAGGAAGAUUGUUGU [JMF's solution 99] (Eterna round: R96, puzzle: Same State NG 3) | 140 nM | 71.2 nM | 113 nM |  |  |  |
| AGCGAAAUAAGCAAGGAUAUGUAAUUUGGCACAUGAGGAUCACCCAUGUCAAUCCAUUUUUUGGAACAGAAGGUGCAUUUUUUUU [ak third] (puzzle: Same State 2) |  |  |  | 69 nM | 100 nM | 102 nM |
| GGAAUAUUCACAGGAUAUGAGUUGUAAAGUGGAUCAGAAGGGUGGGUGUUUUGCACGGUGUGUUACAUGAGGAUCACCCAUGUU [SameState NG1 #23] (Eterna round: R96, puzzle: Same State NG 1) | 82.4 nM | 241 nM | 418 nM |  |  |  |
| UUAAUAAUGAUAGGAUAUACAUGAGGAAUUCUCGUAGAAGGAUCAUGACAUGAGGAUCACCCAUGUAACGCUCGAAAGAGCGUA [Mat - Same State NG 1 - JL mod - D39] (Eterna round: R96, puzzle: Same State NG 1) | 513 nM | 394 nM | 662 nM |  |  |  |
| AAAGAAAACGCAGGAUAUCCCGGAAAAGAUCCGGGAGAAGGGUGACCGGUACAUGAGGAUCACCCAUGUAGAGCAAAGGCUCAA [Ceonbeti] (Eterna round: R96, puzzle: Same State NG 1) | 232 nM | 133 nM | 128 nM |  |  |  |
| AUUCGAUAGAUAGGAUAUCACCAUACAUGAGGAUCACCCAUGUUGACCACGCUGGUUAUUCAUACUGAGAAGGAUCUUGAUGAC [JR_SSNG2_Sub005] (Eterna round: R96, puzzle: Same State NG 2) | 27.8 nM | 31.1 nM | 52.2 nM |  |  |  |
| CUCAACAACACAGGAUAUCCAGGGAAAAGACCUGGAGAAGGGUGACCAACAUGAGGAUCACCCAUGUGACGGCUAGACCGUCUG [Isquce] (Eterna round: R96, puzzle: Same State NG 1) | 593 nM | 24 nM | 249 nM |  |  |  |
| GACCGCGAGGAAGGAUAUGGAGCCUUAUUGGCUCCAGAAGGUCCAUAAAGGACAUGAGGAUCACCCAUGUGGGCUGAAGCGGUC [Fiskers NG1ss - 9] (Eterna round: R96, puzzle: Same State NG 1) | 22 nM | 25.8 nM | 35.1 nM |  |  |  |
| ACAUGAGACGCAGGAUAUCUUGUACCUACAUGUGACAUGAGGAUCACCCAUGUGGUAAGUAUGAUAGAGAAGGGCGAGAUAUGU [Equivalance 56 - Jieux - Same State NG 2] (Eterna round: R96, puzzle: Same State NG 2) | 19.7 nM | 31.6 nM | 58.9 nM |  |  |  |
| GGUAGGUUACUACCAGACAUGAGGAUCACCCAUGUAAAUGGGAAGGAUAUGGUACCGUUUCGGUACCAGAAGGUCCUAAGUGAG [JL SSNG3 1.48] (Eterna round: R96, puzzle: Same State NG 3) | 667 nM | 367 nM | 2280 nM |  |  |  |
| ACAUGAGAGAUAGGAUAUGUUGUACCUACAUGUGACAUGAGGAUCACCCAUGUGGUAAGUAUGAGACAGAAGGAUCAGAUAUGU [Equivalence 31 - Jieux - Same State NG 2] (Eterna round: R96, puzzle: Same State NG 2) | 20.8 nM | 41.4 nM | 74 nM |  |  |  |
| UUGAUUAGAAAUUAACAUGAGGAUCACCCAUGUAUUGGAUCAGAGGAUAUGCAUGUUUGAUUGUAGCAGAAGGCUGAUUGUGGA [JR_SSNG3_Sub028] (Eterna round: R96, puzzle: Same State NG 3) | 43.2 nM | 29.5 nM | 46.5 nM |  |  |  |
| GGAGCCGGCCUAGGAUAUUUCAUAGAAAAACAUGAGGAUCACCCAUGUAGGCCAGAAGGCCUUGGGAAGAAGGAGGUCGGCUCC [Loop Effect - G25] (Eterna round: R96, puzzle: Same State NG 2) | 9.45 nM | 19.5 nM | 31.2 nM |  |  |  |
| GUCCAACAUGAGGAUCACCCAUGUCGGGCGUGCACAGGAUAUCGCGCCGGGAAAGACCAGCGAGAAGGGUGAUCGA [Leriqu] (puzzle: Same State 1) |  |  |  | 139 nM | 51.4 nM | 57.5 nM |
| UGGAAGAAUUAAGGAUAUCGAGUACAUAUGUUUAACAUGAGGAUCACCCAUGUGGGUUGCGGUAUCGAGAAGGUAAAUUACAAG [Mat - same State NG 2 - JL mod - D61] (Eterna round: R96, puzzle: Same State NG 2) | 44.6 nM | 40.5 nM | 44 nM |  |  |  |
| GCUUCACAUGAGGAUCACCCAUGUCUUCGGAGUCGAGGAUAUGGUAACUGUAAACAGUUGCCAGAAGGCGAGGAGC [SS1 - Son of Teenbexe v9] (puzzle: Same State 1) |  |  |  |  | 54.6 nM |  |
| GAGUAGUUGAAAGGAUAUUGAUUGUUAUAGAAUCAAGAAGGUUCUAACAUGAGGAUCACCCAUGUAGGACUAUUCCUGUGUAUC [Parity 78 - Jieux - Same State NG 1] (Eterna round: R96, puzzle: Same State NG 1) |  | 9.15 nM |  |  |  |  |
| GCUAGGAAUUAAGCCAACAUGAGGAUCACCCAUGUAUGUUGGUAGGAUAUCGUUUGCAAAGCAAACGAGAAGGGCUAACCUAGC [Mat - Same State NG 3 - JL Mod - D72] (Eterna round: R96, puzzle: Same State NG 3) | 80.9 nM | 55.8 nM | 85.3 nM |  |  |  |
| ACAUGAGGAUCACCCAUGUAUAGAUUUGAAUCUUAAGUUACGUAGGAUAUCGUGUUUAGUAUCAUCGAGAAGGACGAUCUGAUA [JR_SSNG3_Sub067] (Eterna round: R96, puzzle: Same State NG 3) | 19.7 nM | 17.2 nM | 26 nM |  |  |  |
| GCGAGCGUACUUGCUACAUGAGGAUCACCCAUGUUUGAUGGACAGGAUAUGGUACCGUUUCGGUACCAGAAGGGUUCACAUGUA [JL SSNG3 3.79] (Eterna round: R96, puzzle: Same State NG 3) | 71.4 nM | 268 nM | 214 nM |  |  |  |
| AGCUAGUACCGAGGAUAUACAUACAUGAGGAUCACCCAUGUAUACAUGAAAUAUUGAGACUACAUGUAGAAGGCGGUACUAGCA [Mat - Same State NG 2 - JL mod - D44] (Eterna round: R96, puzzle: Same State NG 2) | 13.6 nM | 28.4 nM | 46.4 nM |  |  |  |
| AACAAUCUAUCUGAGGAUAUCAUGAAUAAAACAUGAGGAUCACCCAUGUGCAGGAAAACUGCAUAUGAGAAGGCAGAUAGAUUGU [Mat - Same State 2 - Mod - D11] (puzzle: Same State 2) |  |  |  | 69.3 nM | 2610 nM | 2140 nM |
| GCGAGCGUACUUGCAGACAUGAGGAUCACCCAUGUAACUGGACAGGAUAUGGUACCGUUUCGGUACCAGAAGGGUUUACUCAUG [JL SSNG3 3.57] (Eterna round: R96, puzzle: Same State NG 3) | 67.2 nM | 84 nM | 69.1 nM |  |  |  |
| GGUCCCUACGCACAGGAUAUUCUUUUGGCAACAUGAGGAUCACCCAUGUGUGCCGAUCAUGGUUAGAAGAAGGGUGGUAGGGACG [Cesovexe] (puzzle: Same State 2) |  |  |  | 12 nM | 11.4 nM | 16.8 nM |
| CCGAUGCUUAUAAACAUGAGGAUCACCCAUGUGAGGACACAUGAGGAUAUGCAGGUCAAAGACUUGCAGAAGGCAUAGCGUCGG [JL SSNG3 3.89] (Eterna round: R96, puzzle: Same State NG 3) | 40.7 nM | 158 nM | 305 nM |  |  |  |
| UUUAGUUGCGGGCAGGAUAUGUAUUAAAAUACAUGAGGAUCACCCAUGUGCGGGUAUAACACCCGACAGAAGGGCCAAUCGCAAC [Laonerce - 6] (puzzle: Same State 2) |  |  |  | 22.2 nM | 142 nM | 240 nM |
| AGCUAUCGCGUACGAUAGCUGAAGCGUGUACAUGAGGAUCACCCAUGUCAUGUGCAAGCUUUUUGCUCGUCUUAUUG [JL-shm-2.29 JL mod] (puzzle: Sensor for hsa-mir-208a) |  |  |  | 353 nM | 14.8 nM | 459 nM |
| AUAAAACAUGAGGAUCACCCAUGUCAACAAAGUCGAGGAUAUGGGCAAAUAAAAUAAGAACCAGAAGGUGAAUAAU [salish99_ss1_r3_032] (puzzle: Same State 1) |  |  |  | 131 nM | 31.5 nM | 146 nM |
| UGUAAACAUGAGGAUCACCCAUGUAAUAUAAUGGGAGGAUAUCUGAAUUAAUUAAAUUAAGGAGAAGGCCUAAUGG [Mat - Same State 1 - Mod of Eli - D48] (puzzle: Same State 1) |  |  |  | 79.8 nM | 995 nM | 563 nM |
| AGCCGAGACACAGGAUAUAGAUAUCUACAUGAGGAUCACCCAUGUAGCAACACGUGGUAGUGAUUCUAGAAGGGUGCUCGGCGC [Omei SS(NG)2 Cv8] (Eterna round: R96, puzzle: Same State NG 2) | 25.3 nM | 170 nM | 189 nM |  |  |  |
